Assay results taken from the supplement of paper PMC7877785.
± gives the uncertainty stated by the source.

Experiment: self-splicing fitness, log relative to wild type (ln ratio); higher = more splicing; Tetrahymena group I intron in knt gene, E. coli kanamycin selection, DiMSum; sequences stand for … in CUCUCU…GGAGGGAAAAGUUAUCAGGCAUGCACCUGGUAGCUAGUCUUUAAACCAAUAGAUUGCAUCGGUUUAAAAGGCAAGACCGUCAAAUUGCGGGAAAGGGGUCAACAGCCGUUCAGUACCAAGUCUCAGGGGAAACUUUGAGAUGGCCUUGCAAAGGGUAUGGUAAUAAGCUGACGGACAUGGUCCUAACCACGCAGCCAAGUCCUAAGUCAACAGAUCUUCUGUUGAUAUGGAUGCAGUUCACAGACUAAAUGUCGGUCGGGGAAGAUGUAUUCUUCUCAUAAGAUAUAGUCGGACCUCUCCUUAAUGGGAGCUAGCGGAUGAAGUGAUGCAACACUGGAGCCGCUGGGAACUAAUUUGUAUGCGAAAGUAUAUUGAUUAGUUUUGGAGUACUCGUGGUCG
Method in brief: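 A randomised library covering all eight P1ex-region intron nucleotides was built with the intron in the knt kanamycin-resistance gene on pET-22b(+) and held in E. coli BL21(DE3). Cells were grown overnight at 37°C or 30°C on LB agar, with or without 25 μg/mL kanamycin, plus 100 μg/mL carbenicillin, 50 μM IPTG and 0.2% rhamnose, and pooled colonies were amplicon-sequenced on an Illumina HiSeq 2500. DiMSum fitness is the error-weighted combination of wild-type-normalised replicate fold changes, kanamycin versus none.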

Row | Sequence | self-splicing fitness (ln) (30 °C) | self-splicing fitness (ln) (37 °C)
1 | UACCAGCAAUAUUACGUCUG | -3.46 ± 0.13 | -2.46 ± 0.12
2 | UACCAGCAAUAUUACGUUAC | -2.83 ± 0.3 | -2.26 ± 0.21
3 | UACCAGCAAUAUUACGUUGU | -3.56 ± 0.12 | -2.66 ± 0.12
4 | UACGAGCAAUAUUACGAAUC | -4.18 ± 0.34 | -2.03 ± 0.39
5 | UACGAGCAAUAUUACGAAUU | -4.2 ± 0.46 | -3.21 ± 0.39
6 | UACGAGCAAUAUUACGACAG | -2.49 ± 0.21 | -0.615 ± 0.2
7 | UACGAGCAAUAUUACGAGAC | -3.68 ± 0.26 | -2.72 ± 0.27
8 | UACGAGCAAUAUUACGAGCG | -1.12 ± 0.13 | -0.262 ± 0.14
9 | UACGAGCAAUAUUACGAGGG | -1.82 ± 0.12 | -2.11 ± 0.27
10 | UACGAGCAAUAUUACGAUAU | -2.39 ± 0.26 | -3.25 ± 0.37
11 | UACGAGCAAUAUUACGAUGA | -2.05 ± 0.19 | -2.41 ± 0.2
12 | UACGAGCAAUAUUACGAUUA | -1.13 ± 0.14 | -0.74 ± 0.12
13 | UACGAGCAAUAUUACGCAAU | -3.04 ± 0.17 | -2.65 ± 0.18
14 | UACGAGCAAUAUUACGCCCG | -3.1 ± 0.18 | -2.02 ± 0.17
15 | UACGAGCAAUAUUACGCGGU | -3.15 ± 0.2 | -2.67 ± 0.26
16 | UACGAGCAAUAUUACGCUGC | – | -2.59 ± 0.41
17 | UACGAGCAAUAUUACGGACA | -3.34 ± 0.26 | -1.72 ± 0.17
18 | UACGAGCAAUAUUACGGAGG | -2.06 ± 0.5 | –
19 | UACGAGCAAUAUUACGGCAA | -1.96 ± 0.24 | -0.476 ± 0.18
20 | UACGAGCAAUAUUACGGCGU | -2.83 ± 0.33 | -1.73 ± 0.29
21 | UACGAGCAAUAUUACGGCUA | 0.411 ± 0.22 | 0.683 ± 0.23
22 | UACGAGCAAUAUUACGGGCC | – | -3.34 ± 0.28
23 | UACGAGCAAUAUUACGGGUU | -2.88 ± 0.14 | -3.21 ± 0.23
24 | UACGAGCAAUAUUACGGUAA | -1.82 ± 0.37 | -0.747 ± 0.28
25 | UACGAGCAAUAUUACGGUUA | -0.815 ± 0.11 | 0.152 ± 0.11

Row | Sequence | self-splicing fitness (ln) (30 °C) | self-splicing fitness (ln) (37 °C)
26 | UACGAGCAAUAUUACGUAAC | -4.91 ± 0.41 | -3.7 ± 0.3
27 | UACGAGCAAUAUUACGUAGC | -3.67 ± 0.46 | -1.01 ± 0.21
28 | UACGAGCAAUAUUACGUCCA | -2.8 ± 0.27 | -1.69 ± 0.27
29 | UACGAGCAAUAUUACGUCCG | -2.29 ± 0.13 | -1.25 ± 0.17
30 | UACGAGCAAUAUUACGUGCA | -3.16 ± 0.19 | -1.32 ± 0.13
31 | UACGAGCAAUAUUACGUUUU | -3.66 ± 0.17 | -2.4 ± 0.16
32 | UACUAGCAAUAUUACGAAUU | -4.02 ± 0.42 | -2.32 ± 0.25
33 | UACUAGCAAUAUUACGACCG | -0.634 ± 0.13 | 0.287 ± 0.16
34 | UACUAGCAAUAUUACGAGUC | -2.67 ± 0.31 | -1.09 ± 0.14
35 | UACUAGCAAUAUUACGAGUG | -1.07 ± 0.083 | -0.536 ± 0.1
36 | UACUAGCAAUAUUACGAGUU | -2.16 ± 0.11 | -0.685 ± 0.1
37 | UACUAGCAAUAUUACGCACC | -1.86 ± 0.2 | -1.22 ± 0.26
38 | UACUAGCAAUAUUACGCACU | -0.822 ± 0.068 | 0.229 ± 0.079
39 | UACUAGCAAUAUUACGCAUC | -2.36 ± 0.14 | -1.53 ± 0.18
40 | UACUAGCAAUAUUACGCCUG | -0.00481 ± 0.11 | 1.03 ± 0.14
41 | UACUAGCAAUAUUACGCGUU | -2.33 ± 0.11 | -0.827 ± 0.1
42 | UACUAGCAAUAUUACGGAAC | -3.78 ± 0.34 | -3.03 ± 0.32
43 | UACUAGCAAUAUUACGGGAG | -2.3 ± 0.11 | -1.19 ± 0.1
44 | UACUAGCAAUAUUACGGGCU | -3.52 ± 0.28 | -2.87 ± 0.34
45 | UACUAGCAAUAUUACGGUCU | -1.3 ± 0.094 | -0.2 ± 0.13
46 | UACUAGCAAUAUUACGUACC | -2.24 ± 0.17 | -1.72 ± 0.23
47 | UACUAGCAAUAUUACGUGGA | -3.03 ± 0.22 | -2.47 ± 0.21
48 | UACUAGCAAUAUUACGUUGU | -2.48 ± 0.17 | -2.21 ± 0.17
49 | UAGAAGCAAUAUUACGAAUU | -2.42 ± 0.46 | -1.29 ± 0.27
50 | UAGAAGCAAUAUUACGACAU | -1.569 ± 0.014 | -0.76 ± 0.033

Row | Sequence | self-splicing fitness (ln) (30 °C) | self-splicing fitness (ln) (37 °C)
51 | UAGAAGCAAUAUUACGACGU | -1.27 ± 0.1 | -0.768 ± 0.098
52 | UAGAAGCAAUAUUACGACUA | -0.222 ± 0.11 | 0.71 ± 0.14
53 | UAGAAGCAAUAUUACGAGAC | -2.67 ± 0.35 | -1.99 ± 0.3
54 | UAGAAGCAAUAUUACGAUGG | -1.84 ± 0.097 | -1.32 ± 0.12
55 | UAGAAGCAAUAUUACGAUUA | -0.441 ± 0.08 | -0.0749 ± 0.093
56 | UAGAAGCAAUAUUACGCAGG | -2.7 ± 0.15 | -2.19 ± 0.15
57 | UAGAAGCAAUAUUACGCCCG | -0.762 ± 0.18 | 0.487 ± 0.23
58 | UAGAAGCAAUAUUACGCCUG | -0.128 ± 0.091 | 0.251 ± 0.12
59 | UAGAAGCAAUAUUACGCGGU | -4.94 ± 0.42 | -2.37 ± 0.24
60 | UAGAAGCAAUAUUACGCGUC | -2.53 ± 0.18 | -1.56 ± 0.18
61 | UAGAAGCAAUAUUACGCUAC | – | -2.23 ± 0.31
62 | UAGAAGCAAUAUUACGGAAA | -2.02 ± 0.17 | -1.41 ± 0.24
63 | UAGAAGCAAUAUUACGGCCA | -0.205 ± 0.077 | -0.611 ± 0.081
64 | UAGAAGCAAUAUUACGGGGU | -3.13 ± 0.17 | -1.27 ± 0.22
65 | UAGAAGCAAUAUUACGGUCA | -0.346 ± 0.095 | -0.338 ± 0.11
66 | UAGAAGCAAUAUUACGGUCC | -1.92 ± 0.22 | -1.57 ± 0.2
67 | UAGAAGCAAUAUUACGGUGU | -3.23 ± 0.14 | -3.06 ± 0.15
68 | UAGAAGCAAUAUUACGUAGC | -3.74 ± 0.26 | -2.43 ± 0.23
69 | UAGAAGCAAUAUUACGUGAG | -0.573 ± 0.06 | -0.716 ± 0.079
70 | UAGAAGCAAUAUUACGUUGG | -2.54 ± 0.14 | -1.55 ± 0.14
71 | UAGAAGCAAUAUUACGUUGU | -4.33 ± 0.18 | -2.47 ± 0.14
72 | UAGCAGCAAUAUUACGAAGU | -1.64 ± 0.13 | -1.59 ± 0.3
73 | UAGCAGCAAUAUUACGAAUU | -2.58 ± 0.18 | -2.66 ± 0.24
74 | UAGCAGCAAUAUUACGACCU | -0.287 ± 0.13 | 0.328 ± 0.13
75 | UAGCAGCAAUAUUACGAUAA | -1.07 ± 0.12 | 0.133 ± 0.13

Row | Sequence | self-splicing fitness (ln) (30 °C) | self-splicing fitness (ln) (37 °C)
76 | UAGCAGCAAUAUUACGAUCA | 0.112 ± 0.088 | 0.169 ± 0.099
77 | UAGCAGCAAUAUUACGAUGA | -0.884 ± 0.069 | -0.42 ± 0.066
78 | UAGCAGCAAUAUUACGCAAU | -2.82 ± 0.13 | -1.68 ± 0.11
79 | UAGCAGCAAUAUUACGCACC | -0.936 ± 0.16 | -0.423 ± 0.16
80 | UAGCAGCAAUAUUACGCAGA | -1.67 ± 0.14 | -1.33 ± 0.088
81 | UAGCAGCAAUAUUACGCCCC | -1.6 ± 0.23 | -1.56 ± 0.31
82 | UAGCAGCAAUAUUACGCUGA | -2.19 ± 0.15 | -1.71 ± 0.18
83 | UAGCAGCAAUAUUACGCUGG | -2.87 ± 0.13 | -2.45 ± 0.15
84 | UAGCAGCAAUAUUACGGGAU | -4.22 ± 0.39 | -2.7 ± 0.26
85 | UAGCAGCAAUAUUACGGGGC | -3.58 ± 0.21 | -3.17 ± 0.27
86 | UAGCAGCAAUAUUACGGUGU | -3.53 ± 0.15 | -1.84 ± 0.15
87 | UAGCAGCAAUAUUACGUACG | -1.2 ± 0.072 | -0.47 ± 0.1
88 | UAGCAGCAAUAUUACGUGCC | -1.84 ± 0.17 | -1.2 ± 0.21
89 | UAGCAGCAAUAUUACGUUCA | 0.0863 ± 0.062 | 0.0609 ± 0.1
90 | UAGGAGCAAUAUUACGAGAC | -2.26 ± 0.29 | –
91 | UAGGAGCAAUAUUACGAGGA | -2.78 ± 0.37 | –
92 | UAGGAGCAAUAUUACGAGUG | -3.74 ± 0.33 | -1.43 ± 0.17
93 | UAGGAGCAAUAUUACGAGUU | -3.51 ± 0.27 | -2.48 ± 0.33
94 | UAGGAGCAAUAUUACGAUAG | -4.07 ± 0.28 | -1.95 ± 0.2
95 | UAGGAGCAAUAUUACGAUCG | -1.65 ± 0.16 | -0.888 ± 0.21
96 | UAGGAGCAAUAUUACGCCUG | -3.57 ± 0.47 | -1.23 ± 0.33
97 | UAGGAGCAAUAUUACGCGAC | – | -1.74 ± 0.38
